Assay: soluble on expression in E. coli; label from the status in PepcDB or PDB records

| Sequence | soluble on expression in E. coli |
| --- | --- |
| GPGSMPSLNFFLADESRLESSRDDSTAEVAHFTPSQHALRRILISTAMANKSLEYVQGMNEYVAHLLYAFAKGKASNLTASVEADTFFCFQTLLSYLGDDFCRSFDFDAACGLTSTMRLFDNVLRFFDPSLFQHLEYLGINAEHYALRWIMLLFTQEFNIADGLRVWDFLLSFGDEIRNAAFFVAAAMCHHLRSSILSGEAMSDVLPLLQEYPAGDVNLFLRIALKWIVKFDFDLLHELKPLSPEGVQALRCSRGLEGGMNFVQVMQSWVPSIF | not soluble |
| MRIAIDFDGTIVEHRYPRIGKEIPFAIATLKQLQTERHLLVLWTVREGKLLDEAVDFCRKRGLEFYAVNANHPEEEVRNDMTSPCRKVVADLYIDDLNVGKLPDWGAIYEMIHNRWSYERYLNEIHGFEKQKKISIWKRIFR | not soluble |
| MIRFEHVSKAYLGGRQALQGVTFHMRPGEMAFLTGHSGAGKSTLLKLICGIERPSAGKIFFSGHDITRLKNREVPFLRRQIGMIFQDHHLLMDRTVYDNVAIPLIIAGASGDDIRRRVSAALDKVGLLDKARNFPIQLSGGEQQRVGIARAVVNKPAVLLADEPTGNLDDALSEGILRLFEEFNRVGVTVLMATHDIGLISRRSYRQLVLSDGHLHGGLANE | not soluble |
| WLFFRYMAIGGYVGAATVGAAAW | soluble |
| MHHHHHHSHMHHHHHHSHMSKYAELLAIIEELGKEIRPTYAGSKSAMERLKRGIIHARGLVREALAETERNARS | soluble |
| MSLTDASFPALPPPLVSLGDLAWDVLAKPDTLLLPGGDTTGRLELSGGGSAANLAVWAARLGAPTTFVGKIGQDRFGELATAELRAEGVRAEVLASAAHPTGVILALIDRRGQRAMLTGQGADWELLPEELPRDVLSSAGHLHLTAWSLFRDPPRAAALEAARIAKAGGATLSLDPGSFQMIQQLGREAFLNIVDALPFDVMFPNDDEARAMSGERDNEAALTWLRARYPRALIALKMDEDGALIEGPQTARVQVPATRDPLVDATGAGDAFGGAFLSQWLRHHDAERAARVAVQVGGWVVSRFGARPPADPDLTRRLASVGADLLTPDPAAAPDPSQDSPEVNEGHHHHHH | soluble |
| MRMSSNFRNPCMIRSDVPLSNDQIAHYVPSIFAEEAHDSRSARYLYIPTVQVLDALRAEGFEPFMACQTRVRDQGKREHTKHMLRLRHASQILDQEANEVILLNSHDGSSSYQMIGGKFRFVCANGLVLGDVAADQKVRHSGRGDVVHDVIEGAFEVLKHFEQIDHITADMKHQQLDQDEQEAFALAALAYRYDPAEGPAPVTPSQLLMPRRREDRSSDLWTTFNRVQENTIKGGLTGRNKQGRRTTTRAVNGIDQDVKLNRALWVLAQAMGEHRKAA | not soluble |
| GMTALRQDIDPNGLLEYSVVYTDRALNHMSKAFQEVMNDLLSNLKTVYNAEAAVIIPGSGTYGMEAVARQLTIDEDCLIIRNGWFSYRWTQILEKGKFAKSSTVLTAERTEDTEAPKPFAPVDIETAVAKIKEDKSAIVYAPHVETSSGIILSEEYIKALSEAVHSVGGLLVIDCIASGCVWLDMKELGIDVLISAPQKGWSSTPCAGLVMLSAAAIKKVESTESNCFSLDLKQWLTIMRAYENGGHAYHATMPTDSLRQFRDAILEAKEIGFDILRDAQWELGNRVRKVLTDKGIESVAAEGFEAPGVVVSYTERDDMHKGSAFAEAGLQIAAGVPLKVGEPDNFKTFRLGLFGLDKLTDIDGTVERFEKALDEVLAK | soluble |
| MAQDGDRHHIFVSAPPPPPPSSSIPAPSQPNRLEKEPLIDEETDMIDESRATYWKGCEFLKASGLYSSKCELV | not soluble |
| MKKYTEMTKDELMQEKTALEAEYEKIKNLGLSLDMSRGKPGADQLDLSLPMLDVLKSDSDMKSESGLDVRNYACLDGIPEAKALIAGMVGAKPEQAIVYGNSSLNIMYDQVARAFIFGLCGNTPWCKLDKVKFLCPVPGYDRHFAITEEFGVEMINIPMTEDGPDMDMVEKYVNNDASVKGIWCVPKYSNPQGVVYSDETVERFAKLKPAADDFRIFWDNAYTVHHLYDDKQAEIPNILELCEKEGNPDMVFEFCSTSKVTFPGAGVAGICTSEKNREDIKKRLTIQTIGHDKINQLRHARFFKDVDGIKAHMAKHAALIRPKFELVENILTDEIASRGIGTWVKPLGGYFFGFEALSGCAKEIVAKCKEAGVTMTGAGSPFPYKKDPDDSVIRIAPTYPSLDELKKAAEVFVIVTRLVSVNKLLEA | not soluble |
| MGSDKIHHHHHHMDVTQLKMLHNAKVISEIKKGFSVDRKYQVDETYLVRVFPIDLLQERKQEFKIIQALDSQTPFVPKAYDFGFIEREGYMIISYLRGEDAESGMTHLSHSEQFKAGFSAGEILREVHKIPLDIPKMNWLDFQTAKFKRKVEELKELEITASFLTDTEKFVYKNIARLKNRPICLQHGDFHPANIILNNKKFVGLIDFNRLEFGDPLFDLAKIGFFTTEVSIPFARGNILGYIDKEEVTDFWNLYALYTAMHITSAVSWAAKNESRNFKKLMDYAVKTAASHDNFQKIVPNWMNEEEFK | not soluble |
| MRDALLGALDAGAVCVNVDLAHAGQQAKLEPDTPYGDALGVGAGRNWAHVNSIAYDAKDDSIILSSRHQGIVKIGRDKQVKWILAPSKGWNKQLASKLLKPVDDHGKPLTCDENGKCKDTDFDFTYTQHTAWLSSKGTLTVFDNGDGRGLEQPALPTMKYSRFVEYKIDEKKGTVQQVWEYGKERGYDFYSPITSVVEYQKDRDTMFGFGGSINLFDVGKPTVGKLNEIDYKTKEVKVEIDVLSDKPNQTHYRALLVHPTQMFKLEHHHHHH | soluble |
| MENEQQQAQTAPSCRAGCGFFGASATEGYCSQCFKNTLKRQQDTVRLTSPVVSPSSMAATSSALKSEPSSVDMCMKAAVSVSDETAKMDCEDIINVCDQINDDSVTVAESTAPTTITVDVPVPVKKANRCHMCKKRVGLTGFSCRCGGLYCGDHRYDQAHNCQFDYKTMERETIRKNNPVVVSDKVQRI | soluble |
| MAHHHHHHMLTNLRFLELQKLLLKRFQIFKNEEITILKKDSMKTILNEWAEFLTKEQKGTNITHIPDEVLQNKKVADILRDDIECRWLVGRINVGNNQESPVGTNDVNSSCSAALARKGTALSKIDQLHFDEYPNLFHYEYPQFPYNYYDKKKMENFYSLLKFPYNDILKISKMIKRDVISPSGNAEEGEILQQGGKAQSEVLESTHVDVVNDDFMNYSSNSYVYAPSEMETSKENYHE | not soluble |
| MGSDKIHHHHHHMRMPEMMFLQGNEACALGAIKAGCRFFAGYPITPSTEIAEVMARELPKVGGVFVQMEDEIASAAAVVGASLAGVKSMTATSGPGFSLIQEVIGYAIMTETPCVFANVMRLGPSTGLPTKPAQGDIMQTRWGTHGDHAIIALYPSSVAEVYRYIITAFNLAEEYRTPVVFLMDAMLGHMRESFYPPKDEELFIIERLKDTSFGEEDLFVPFSESEYAEPTPFPMAEMGKTKFHVSGLVHDESGFPLSSPDAAEKLIRRLTNKIRLHADEIAFYEEYETEDAEILVVAYGIVARSAMKAVKIARRDRIKVGLFKPITIWPAPVSRFRKLAEKVNTIVIAEMNLGQYAKELISSIDRRSKVIRTINKVNGELIKPEEILDVITETQIEI | not soluble |
| SLVARSVVVSAEAVYSHEGEYVGDHVLVDEGLVKSISRGEPHVSVGKRVAVKGFLLPPLVDAHLHMRSLGASFRIVNLKGASSPEEVAKRLAAANSPIAVGRGWNEEEFRPGSRLDRRILDSYLGEKPALAVRICGHVAVANSAFIRESGVDKLFPNLVDRERGLLLEDAVSYAVSVAMKTYNNEELLRDAASALASVGVFGVSSMACSEEEVRALSLIGDALEVRVACYLRRGVEPPPKRAGARWSIVGVKLFADGSLGGRTAYLRRPYISGENEGWRGLKLLSSRDIAEEAVSNSHRGLATAVHAIGDAALDEVLEGFSNAISRGVEPGMLRVEHASLAWPNQIDRLASLRVWTVVQPLFRVSDWWLESRVGSDMLQAAYPFASMLRAGVKLALSTDAPVETYDPAETFKAAVGLCSSRLCRESESLTPRETLKLYTLNSALASGGPVAWLGRLRRGAPALFAVANVDVLNSGRKELEKLKFRGLNLAK | not soluble |
| MSANDFKPETWTSSANEALRVSIVGENAVQFSPLFTYPIYGDSEKIYGYKDLIIHLAFDSVTFKPYVNVKYSAKLGDDNIVDVEKKLLSFLPKDDVIVRDEAKWVDCFAEERKTHNLSDVFEKVSEYSLNGEEFVVYKSSLVDDFARRMHRRVQIFSLLFIEAANYIDETDPSWQIYWLLNKKTKELIGFVTTYKYWHYLGAKSFDEDIDKKFRAKISQFLIFPPYQNKGHGSCLYEAIIQSWLEDKSITEITVEDPNEAFDDLRDRNDIQRLRKLGYDAVFQKHSDLSDEFLESSRKSLKLEERQFNRLVEMLLLLNNSPSFELKVKNRLYIKNYDALDQTDPEKAREALQNSFILVKDDYRRIIESINKSQG | not soluble |
| GMADLTHEFWDRLEDVRSGMLGIKGQGRLIPMSPQTDDDAPGAIWFITAKGTDLAKGVAAGPQPAQFVVSDDGEGLYADLDGTLERSTDREALDEFWSFVADAWFDGGQHDPDVCLLKFTPASGEISITEGGGARFLYEIAKAHLTDETPDMGEQATVTF | soluble |
| NCRLFIGGIPKMKKREEILEEIAKVTEGVLDVIVYASAADKMKNRGFAFVEYESHRAAAMARRKLMPGRIQLWGHQIAVDWAEPEIDVDEDVMETV | soluble |
| MAHHHHHHMYVRSISKELTKRMYNPSGHRIMMMDLKNKTTNNILNSRRYIVSYTKVHRTHYLEDYYTNPEIATNMISPMSEYIWWSWLLLQVN | not soluble |
| MIHEASIQHGSFGKMVADWPQEKITELWAYLKKHGSRLGGNTGPYTLRQMGADTFILSNDVEAYLRNCKIIEGGKDTKKSHDAATQAFMQWQKESGRSLTEISQIIAFSTGDNRL | not soluble |
| GPGSMLPTVPCFGSQWCIESVMDLSGLVPTSKELTEGQREHIRDLQYEIDEIWNRRGDYKIDSSAWEQMPLFMENITEEDLQRNADCAALASIAYDDVPPEEVAESRKQHGNRAIQLALDPKQVNKENLARATVHCYTEGLAAKCKDPVLNSQLYANRSLAQYIIHNYGHGLEDAQRAIILDPDYYKAYYRAARCAERIGKYDLALDLLAKGRRTNPAPVGRALEDFVDIERVCREGKERAESKKKKENLSTRVKAAQTSSTLRCVTSSGVRCSPRAEVSSEQMGVYGHHEPYFDSEGLLHVPILFMYDEYQQTDFMQDVSCDVCVGELLDELMPFPWDDRGRYQRIDDILVVYKIDGGVKDPKYYEVDLSLPLMEVFRSESYQMPALLPVLHIICKHSDMLTEWDVQMLR | soluble |
| MGSDKIHHHHHHMLPETMKAVVLTAHGGLDKLVYRDDVPVPVCRAGEVLLDVTACGLNNTDVWVREGAYGTDDDPQAVSTWRRGRSTLSFPRIQGADIVGRVIAVGHGVSDARVGERVIVDASIYNRDDDSLADIDYIGHGRDGGYAEYTAVPAQSAHRIDSACSDAELATFWCAYHTGEQMIERAAVKSGETVLITGASGGVGSAIVQLCRARGAVPYAVVSKGKEEAVRELGAQGVMLRDSEDFAAAVERMTGGRPVDVVADLVGGALFGKLLNVLRPEGRYTTAGAIAGPVVQLDLRTMYLKQLQLNGSSQGTRGAFKRVLDYIQAGTIRPVLAATYPLSKFHEAQTQFMAKRFVGNIVVVPDRHYNGTADRT | not soluble |
| MQVNRLPFFTNHFFDTYLLISEDTPVGSSVTQLLARDMDNDPLVFGVSGEEASRFFAVEPDTGVVWLRQPLDRETKSEFTVEFSVSDHQGVITRKVNIQVGGVNDNAPTFHNQPYSVRIPENTPVGTPIFIVNATDPDLGAGGSVLYSFQPPSPFFAIDSARGIVTVIQELDYEVTQAYQLTVNATDQDKTRPLSTLANLAIIITDLEHHHHHH | soluble |
| YEQKIRLENRSVAGKWALSQKGFDGKKLMRAYDSPEAAAAALKMQKLTEQYRIDSTPTVIVGGKYRVIFNNGFDGGVHTIKELVAKVREERKRQTPAVQK | not soluble |

From the DeepSol protein solubility set
